This is an account of results in publication PMC2709577.

Like-named read-outs stand apart in the source and are kept apart here.

What all share (assay): nanopore rupture with qPCR
For data set [1], the target named is T1, EcoRI restriction endonuclease (UniProt P00642 1-277).
Data set [2] deals with T1, EcoRI restriction endonuclease. The source holds these as a separate data set.
Data set [3] shares this target. The source holds these as a separate data set.

T1 sequence (P00642 whole entry): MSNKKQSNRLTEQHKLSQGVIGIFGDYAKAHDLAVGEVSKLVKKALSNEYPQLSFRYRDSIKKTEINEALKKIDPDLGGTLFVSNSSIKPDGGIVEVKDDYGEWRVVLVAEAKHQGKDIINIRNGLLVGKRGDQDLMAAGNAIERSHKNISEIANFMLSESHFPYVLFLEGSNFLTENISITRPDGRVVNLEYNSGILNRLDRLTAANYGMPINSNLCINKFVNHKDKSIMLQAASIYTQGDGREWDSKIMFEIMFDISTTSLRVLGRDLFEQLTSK

B1: 105 bp cognate TGAATTC (dsDNA)
DNA 1: TAAGTTGGGTAACGCCAGGGTTTTCCCAGTCACGACGTTGTAAAACGACGGCCAGTGAATTCGAGCTCGGTACCCGGGGATCCTCTAGAGTCGACCTGCAGGCAT
DNA 2: ATGCCTGCAGGTCGACTCTAGAGGATCCCCGGGTACCGAGCTCGAATTCACTGGCCGTCGTTTTACAACGTCGTGACTGGGAAAACCCTGGCGTTACCCAACTTA
As to B1, the binding signal in data set [1] was 2.16 ± 0.08 V (threshold voltage); in data set [2], 2.09 ± 0.06 V (threshold voltage); in data set [3] it was 2.08 ± 0.03 V (threshold voltage).

B2: 105 bp TGCATTC (second base A to C) (dsDNA)
DNA 1: TAAGTTGGGTAACGCCAGGGTTTTCCCAGTCACGACGTTGTAAAACGACGGCCAGTGCATTCGAGCTCGGTACCCGGGGATCCTCTAGAGTCGACCTGCAGGCAT
DNA 2: ATGCCTGCAGGTCGACTCTAGAGGATCCCCGGGTACCGAGCTCGAATGCACTGGCCGTCGTTTTACAACGTCGTGACTGGGAAAACCCTGGCGTTACCCAACTTA
In the case of B2, the binding signal is 0.87 ± 0.06 V (threshold voltage) in data set [1], 0.93 ± 0.06 V (threshold voltage) in data set [2] and 0.93 ± 0.05 V (threshold voltage) in data set [3].

B3: 105 bp AGAATTC (5' flank T to A) (dsDNA)
DNA 1: TAAGTTGGGTAACGCCAGGGTTTTCCCAGTCACGACGTTGTAAAACGACGGCCAGAGAATTCGAGCTCGGTACCCGGGGATCCTCTAGAGTCGACCTGCAGGCAT
DNA 2: ATGCCTGCAGGTCGACTCTAGAGGATCCCCGGGTACCGAGCTCGAATTCTCTGGCCGTCGTTTTACAACGTCGTGACTGGGAAAACCCTGGCGTTACCCAACTTA
On to B3, for which the binding signal in data set [1] is 1.62 ± 0.07 V (threshold voltage); in data set [2], 1.84 ± 0.05 V (threshold voltage); in data set [3], 1.72 ± 0.05 V (threshold voltage).

B4: 105 bp TTAATTC (first base G to T) (dsDNA)
DNA 1: TAAGTTGGGTAACGCCAGGGTTTTCCCAGTCACGACGTTGTAAAACGACGGCCAGTTAATTCGAGCTCGGTACCCGGGGATCCTCTAGAGTCGACCTGCAGGCAT
DNA 2: ATGCCTGCAGGTCGACTCTAGAGGATCCCCGGGTACCGAGCTCGAATTAACTGGCCGTCGTTTTACAACGTCGTGACTGGGAAAACCCTGGCGTTACCCAACTTA
Turning to B4, the binding signal in data set [1] was 1.17 ± 0.09 V (threshold voltage); in data set [2], 1.16 ± 0.03 V (threshold voltage); in data set [3] it was 1.18 ± 0.06 V (threshold voltage).

B5: 105 bp TGACTTC (third base A to C) (dsDNA)
DNA 1: TAAGTTGGGTAACGCCAGGGTTTTCCCAGTCACGACGTTGTAAAACGACGGCCAGTGACTTCGAGCTCGGTACCCGGGGATCCTCTAGAGTCGACCTGCAGGCAT
DNA 2: ATGCCTGCAGGTCGACTCTAGAGGATCCCCGGGTACCGAGCTCGAAGTCACTGGCCGTCGTTTTACAACGTCGTGACTGGGAAAACCCTGGCGTTACCCAACTTA
B5: the figures for the binding signal in data set [1], in data set [2] and in data set [3] were 1.11 ± 0.08 V (threshold voltage), 1.02 ± 0.08 V (threshold voltage) and 1.08 ± 0.04 V (threshold voltage), respectively.
